Positions count from the first letter of the chain named. Each block holds one binder with its values, some of them ahead of it.
Experiments:
[1] = target: T1, GST-MBSLZ (amino acids 847-1030 of MBS, includes the leucine zipper domain) (human, UniProt O14974 847-1030); experiment: purified protein interaction, His fusions on Ni-NTA beads, anti-GST immunoblot
T1 construct: range 847-1030; also called wild type C terminal MBS; not shown: glutathione S-transferase (GST) tag
T1 sequence (looked up): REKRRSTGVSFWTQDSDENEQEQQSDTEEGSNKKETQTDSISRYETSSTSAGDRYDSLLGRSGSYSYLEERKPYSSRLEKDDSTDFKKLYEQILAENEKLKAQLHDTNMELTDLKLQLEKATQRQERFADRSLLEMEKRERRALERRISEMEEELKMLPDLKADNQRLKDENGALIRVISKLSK
Experimental: FIG. 4F show a series of immunoblots representing a purified protein interaction assay in which similar quantities of 6×his CC1, CC2, and CC3 bound to Ni-NTA beads were incubated with purified soluble GST-MBSLZ or GST-MBSLZ mutant. Bound GST-MBSLZ and GST-MBSLZ mutant were detected using anti-GST antibodies.
(§1) For fusion protein interactions with proteins from cell lysates, confluent cells were rinsed twice with ice cold PBS, lysed in buffer A, incubated for 1 hour at room temperature, then centrifuged at 14,000 rpm for 20 minutes at 40C. The supernatant was mixed with GST-fusion proteins prebound to glutathione agarose beads. After overnight incubation at 40C, the beads were washed with buffer C, eluted with SDS sample buffer and bound proteins were analyzed by immunoblotting. For fusion protein interactions with purified proteins, fusion proteins immobilized on beads were incubated in buffer A for one hour with purified soluble protein previously eluted from beads. After incubation, the beads were washed three times with buffer C, bound proteins were eluted in SDS sample buffer and analyzed by immunoblotting with anti-GST antibodies.

[2] = target: T2, GFP-MBSLZM (full-length GFP-MBS with the C-terminal domain of GST-MBSLZmutant) (human, UniProt O14974 1-1030); experiment: GST pull-down from lysate of transfected COS1 cells, anti-MBS immunoblot
T2 construct: also called GFP-MBSLZ mutant; not shown: GFP of the pEGFP vector
T2 sequence (looked up): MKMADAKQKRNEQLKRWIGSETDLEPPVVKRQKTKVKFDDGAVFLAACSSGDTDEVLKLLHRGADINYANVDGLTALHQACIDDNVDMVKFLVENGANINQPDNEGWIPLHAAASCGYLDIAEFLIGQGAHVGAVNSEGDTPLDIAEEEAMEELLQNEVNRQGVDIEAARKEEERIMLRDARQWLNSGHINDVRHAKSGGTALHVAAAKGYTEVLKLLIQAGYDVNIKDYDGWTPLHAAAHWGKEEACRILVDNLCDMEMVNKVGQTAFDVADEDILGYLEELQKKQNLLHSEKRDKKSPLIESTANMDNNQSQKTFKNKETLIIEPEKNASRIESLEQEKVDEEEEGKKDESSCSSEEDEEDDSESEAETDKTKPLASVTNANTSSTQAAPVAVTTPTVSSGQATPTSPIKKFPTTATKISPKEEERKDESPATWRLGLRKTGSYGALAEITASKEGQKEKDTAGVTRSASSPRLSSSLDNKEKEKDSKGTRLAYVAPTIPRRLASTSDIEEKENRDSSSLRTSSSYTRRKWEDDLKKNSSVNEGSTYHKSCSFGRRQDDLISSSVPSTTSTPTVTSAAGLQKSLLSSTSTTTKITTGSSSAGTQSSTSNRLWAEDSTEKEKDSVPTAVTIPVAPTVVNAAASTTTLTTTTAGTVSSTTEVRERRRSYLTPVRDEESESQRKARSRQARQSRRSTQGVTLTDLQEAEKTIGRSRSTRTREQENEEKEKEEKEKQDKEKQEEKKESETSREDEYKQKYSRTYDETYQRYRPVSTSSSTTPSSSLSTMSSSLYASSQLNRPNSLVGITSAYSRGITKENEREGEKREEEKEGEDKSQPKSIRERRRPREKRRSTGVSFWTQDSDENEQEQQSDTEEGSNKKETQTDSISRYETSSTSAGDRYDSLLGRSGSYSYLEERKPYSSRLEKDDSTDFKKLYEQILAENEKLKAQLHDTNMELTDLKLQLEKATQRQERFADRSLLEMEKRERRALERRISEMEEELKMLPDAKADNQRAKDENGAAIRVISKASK

[3] = target: T3, MBS-Cterm-pGBT9 (human MBS base pairs 2043-3090 fused to the Gal4 DNA binding domain) (human, UniProt P04386 1-147; O14974 682-1030); experiment: yeast two-hybrid
T3 construct: Bait of the yeast 2-hybrid screen
Text: Human MBS-Cterm, base pairs 2043-3090 (kind gift of Dr. Masaaki Ito) was cloned into the EcoR1 site of yeast 2-hybrid vectors pGBT9 and pGAD424, expressing MBS fusion proteins with Gal4 DNA binding domain and DNA activating domain, respectively. Expression of MBS-Cterm in yeast was confirmed by dimerization when MBS-Cterm-pGBT9 and MBS-Cterm-pGAD424 were coexpressed in yeast (data not shown). Yeast strain Y190 was sequentially transformed with MBSCterm- pGBT9 and a human aorta cDNA library (Clontech) using the lithium acetate method. Interactions were identified by growth on selective media, and confirmed by colony lift filter β-galactosidase assay. The cDNA library plasmid was extracted from confirmed positive yeast colonies, and sequenced at the Tufts Core Sequencing Facility.

[4] = target: T4, Myosin binding subunit (MBS) of myosin phosphatase, endogenous in human vascular smooth muscle cells (human, UniProt O14974 1-1030, limits assumed); experiment: GST pull-down from vascular smooth muscle cell lysate, anti-MBS immunoblot
T4 construct: In lysate it stands in the myosin phosphatase complex with PP1 and the 20 kD subunit; also called MYPT1
T4 sequence (looked up): T2 sequence (looked up) with A1007L, A1014L, A1021L, A1028L
Text: Also shown is the same M-RIP domains expressed in COS1 cells as Flag-tagged proteins and immunoprecipitated with M2 antibody. The MBS immunoblot of the immunopellets is shown in the middle panel and the total cellular MBS content from each lysate used for immunoprecipitation is shown in the lower panel. Molecular weight size markers in kD are shown on the right.
Identical results were obtained in heterologous expression studies with epitope-tagged constructs for various M-RIP domains expressed in COS1 cells (FIG. 4B).
as §1

binding result [1]: binds
B1: 6×his CC2 (polyhistidine fusion of M-RIP coiled-coil domain 2) (other)
chain: AAMEETHQKKIEDLQRQHQRELEKLREEKDRLLAEETAATISAIEAMKNAHREEMERELEKSQRSQISSVNSDVEALRRQYLEELQSVQRELEVLSEQYSQKCLENAHLAQALEAERQALRQCQRENQELNAHNQELNNRLAAEITRLRTL
notes: not shown: polyhistidine (6xhis) tag of the pQE vector

binding result [2]: no binding
B2: GST-M-RIP545-878 (RhoA-binding domain plus the remaining carboxy-terminus of CC2) (other)
chain: AEFRPIQQALAQERVGGVGPADTHEPLRPEAESGELERERARRREERRKRFGMLDATDGPGTEDAALRMEVDRSPGLPMSDLKTHNVHVEIEQRWHQVETTPLREEKQVPIAPVHLSSEDGGDRLSTHELTSLLEKELEQSQKEASDLLEQNRLLQDQLRVALGREQSAREGYVLQATCERGFAAMEETHQKKIEDLQRQHQRELEKLREEKDRLLAEETAATISAIEAMKNAHREEMERELEKSQRSQISSVNSDVEALRRQYLEELQSVQRELEVLSEQYSQKCLENAHLAQALEAERQALRQCQRENQELNAHNQELNNRLAAEITRLRTL
notes: not shown: glutathione S-transferase (GST) tag of the pGEX vector

binding result [3]: binds
B3: MBS-Cterm-pGAD424 (human MBS base pairs 2043-3090 fused to the Gal4 DNA activating domain) (other, UniProt O14974 682-1030, looked up, not shown: large carriers)
chain: RKARSRQARQSRRSTQGVTLTDLQEAEKTIGRSRSTRTREQENEEKEKEEKEKQDKEKQEEKKESETSREDEYKQKYSRTYDETYQRYRPVSTSSSTTPSSSLSTMSSSLYASSQLNRPNSLVGITSAYSRGITKENEREGEKREEEKEGEDKSQPKSIRERRRPREKRRSTGVSFWTQDSDENEQEQQSDTEEGSNKKETQTDSISRYETSSTSAGDRYDSLLGRSGSYSYLEERKPYSSRLEKDDSTDFKKLYEQILAENEKLKAQLHDTNMELTDLKLQLEKATQRQERFADRSLLEMEKRERRALERRISEMEEELKMLPDLKADNQRLKDENGALIRVISKLSK
notes: domain: MBS-Cterm (base pairs 2043-3090)

binding result [4]: no binding
B4: GST-M-RIP545-823 (M-RIP RhoA-binding domain) (other)
chain: AEFRPIQQALAQERVGGVGPADTHEPLRPEAESGELERERARRREERRKRFGMLDATDGPGTEDAALRMEVDRSPGLPMSDLKTHNVHVEIEQRWHQVETTPLREEKQVPIAPVHLSSEDGGDRLSTHELTSLLEKELEQSQKEASDLLEQNRLLQDQLRVALGREQSAREGYVLQATCERGFAAMEETHQKKIEDLQRQHQRELEKLREEKDRLLAEETAATISAIEAMKNAHREEMERELEKSQRSQISSVNSDVEALRRQYLEELQSVQRELEVLS
notes: as for B2
